This is an account of results in patent publication US6127144, “Method for expression of proteins in bacterial host cells” (Cangene Corporation, dated 2000).

In assay [1] the target is T1, D-phenylalanyl-L-prolyl-L-arginine beta-napthylamide.
T1 sequence (peptide, D-phenylalanine at position 1; C-terminal beta-naphthylamide): FPR

Another assay concerns the target T2, GPM-bNA.
T2 sequence (peptide, C-terminal beta-naphthylamide): GPM

The target in assay [2] is T3, L-alanyl-L-prolyl-L-phenylalanine beta-naphthylamide.
T3 sequence (peptide, C-terminal beta-naphthylamide): APF

Assay [3] addresses T4, tripeptidyl aminopeptidase-S (Tap) of Streptomyces lividans 66 (Streptomyces lividans 66).
T4 chain: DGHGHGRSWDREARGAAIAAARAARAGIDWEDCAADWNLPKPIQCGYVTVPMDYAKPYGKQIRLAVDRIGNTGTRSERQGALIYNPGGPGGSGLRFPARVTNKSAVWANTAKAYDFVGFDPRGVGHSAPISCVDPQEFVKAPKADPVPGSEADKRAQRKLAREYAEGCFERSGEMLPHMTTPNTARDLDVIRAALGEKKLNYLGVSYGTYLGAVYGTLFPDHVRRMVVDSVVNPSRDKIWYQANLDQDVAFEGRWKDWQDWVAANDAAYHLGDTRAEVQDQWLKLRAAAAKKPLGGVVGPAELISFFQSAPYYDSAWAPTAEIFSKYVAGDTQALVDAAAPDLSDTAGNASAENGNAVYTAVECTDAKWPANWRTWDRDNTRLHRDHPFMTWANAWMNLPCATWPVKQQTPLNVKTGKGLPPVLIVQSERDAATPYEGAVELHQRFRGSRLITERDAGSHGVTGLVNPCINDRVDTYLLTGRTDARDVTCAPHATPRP
As to the kind of experiment: inactivation kinetics of purified Tap on ice, residual activity with APA-pNA (Example 8). How it is done:
A stock solution of 1.1 uM Tap in 50 mM Tris-HCl, pH 8.0 was prepared. APACMK stock solutions of 11 uM, 13.8 uM, 17.3 uM, 21.7 uM, 27.0 uM, 54.0 uM, 108 uM, and 1.08 mM were prepared. The Substrate Solution was 50 mM Tris-HCl, pH 8.0, 0.8 mM APA-pNA. The inactivation was performed by placing 90 ul of Tap […] in a 1.5 ml Eppendorf tube on ice and adding 10 ul of water (uninhibited control) or 10 ul of APACMK. A 10 ul aliquot was removed immediately and was assayed by adding it to a cuvette containing 390 ul Substrate Solution at 22° C. The initial velocity was obtained from the change in absorbance at 405 nm during the first 10 seconds of the assay. Additional aliquots were removed at time points and assayed by the same method. At APACMK concentrations greater than 5.0 uM in the incubation, it was not possible to remove an aliquot from the incubation before 90% inactivation occurred.

Assay [4] deals with tripeptidyl aminopeptidase-S (Tap) of Streptomyces lividans 66 (Streptomyces lividans 66).

No end group written: not given here. *: point of attachment. CH2Cl = ClC*

In the assay with Boc-APARSPA-bNA, “soluble SlpE secreted from AP6.SlpE (enzyme)” had an A540, Boc-APARSPA-bNA assay on 20 µl cell-free broth of 0.084 A540.

With “soluble SlpD secreted from AP6.SlpD (enzyme)”, in the assay with APA-bNA, the A405, APA-bNA assay on 20 µl cell-free broth came to 1.15 A405. In addition, in the assay with Boc-APARSPA-bNA, the A540, Boc-APARSPA-bNA assay on 20 µl cell-free broth is 0.278 A540.

B1: tripeptidyl aminopeptidase-S (Tap) of Streptomyces lividans 66 (enzyme)
chain: DGHGHGRSWDREARGAAIAAARAARAGIDWEDCAADWNLPKPIQCGYVTVPMDYAKPYGKQIRLAVDRIGNTGTRSERQGALIYNPGGPGGSGLRFPARVTNKSAVWANTAKAYDFVGFDPRGVGHSAPISCVDPQEFVKAPKADPVPGSEADKRAQRKLAREYAEGCFERSGEMLPHMTTPNTARDLDVIRAALGEKKLNYLGVSYGTYLGAVYGTLFPDHVRRMVVDSVVNPSRDKIWYQANLDQDVAFEGRWKDWQDWVAANDAAYHLGDTRAEVQDQWLKLRAAAAKKPLGGVVGPAELISFFQSAPYYDSAWAPTAEIFSKYVAGDTQALVDAAAPDLSDTAGNASAENGNAVYTAVECTDAKWPANWRTWDRDNTRLHRDHPFMTWANAWMNLPCATWPVKQQTPLNVKTGKGLPPVLIVQSERDAATPYEGAVELHQRFRGSRLITERDAGSHGVTGLVNPCINDRVDTYLLTGRTDARDVTCAPHATPRP
For B1, the results for the Tripeptidyl Aminopeptidase Activity (A540 above background) (A540 above background) (in assay [1]; with GPM-bNA; in assay [2]) were 0.02, over 3 and over 3, respectively.

Turning to Ala-Pro-Ala-CH2Cl (also: hydrochloride salt) [L-alanyl-L-prolyl-L-alanine chloromethylketone], the Ki in assay [3] was 3.3 µM. In assay [4], the inactivation of Tap, residual activity assayed with APA-pNA is over 99% and the kinact stood at 0.14 min⁻¹.
